Experimental data taken from IntAct's records for PubMed 21802063.

B1: Cell adhesion molecule-related/down-regulated by oncogenes (Rattus norvegicus (Rat)), O35158 (parent)
chain: MHPDLGPLWKLLYVLVILCSSVSSDLATYFISEPLSAVQKLGRPVVLHCSAKPVTARISWLHNGKRLDRNTEQIKIHRGTLTILSLNPSLSGCYQCVANNSVGAVVSGPATVSADALADFDSSTMHVITAEKKNTGFIGCRVPESNPKAEVRYKIRGKWLMYSTGNYIILPSGNLQILNVSSKDKGSYKCAAYNPVTSELKVEPAGRKLLVSRPSSDGFHILHPALSQALAVLPHSPVTLECVVSGVPASQVYWLKDGQDCLSGSNWRRLYSHLATASIDPADSGNYSCVVGNNSSGDVKHVTYTVNVLEHASISKGLHDQKVSLGATVRFTCEVHGNPAPNRTWFHNAQPIRPSSRHLTEGSVLKITGVIMEDSGLYQCMADNGIGFMQSTGRLQIEQDSGQRPVIVTAPANVEVTDGDFVTLSCNATGEPVPVIHWYGRHGLITSHPSQVLRSKSRKSHLFRPGDLDPEPVYLIMSQAGSSSLSIQAVTREHAGKYTCEAVNKHGSTQSEAFLTVVPFETNTKAEPVTPSEASQNDERDPRDGSESGLLNLFPVKVHSGGVELPAEKNASVPDAPNILSPPQTHMPDTYTLVWRTGRDGGMPINAYFVKYRKLDDGSGAVGSWHTVRVPGSESELHLTELEPSSLYEVLMVARSAVGEGQPAMLTFRTSKEKMASSKNTQASFPPVGIPKRPVTSEASNSNFGVVLTDSSRHSGVPEAPDRPTISMASETSVYVTWIPRANGGSPITAFKVEYKRMKSSDWLVAAEDIPPSKLSVEVRSLEPGSIYKFRVIVINHYGESFRSSASRPYQVAGFPNRFSNRPITGPHIAYTEAVSDTQIMLKWTYIPSSNNNTPIQGFYIYYRPTDSDNDSDYKRDVVEGSKQWHTIGHLQPETSYDIKMQCFNEGGESEFSNVMICETKVKRVPGASEYPMKELSTPPSSSGNGGNVGPATSPARSSDMLYLIVGCVLGVMVLILLVFIALCLWKSRQQSAIQKYDPPGYLYQGSEINGQMVEYTTLSGTARINGSVHGGFLSKGSLSNGCSHLHHKGPNGVNGILNGTINGGLYSAHTSSLTRTCVEFEHPHHLVNGGAVYTAVPQMDPLECINCRNCRNNNRCFTKTNSPLPVVPVVASYPQDGLEMKPLGVMKFPVCPVSTVPDGGQIPEECLKDSVAPAPTQRTCRQDNTSDINSDSTEDTAEFNRGDSSGHSEAEDKVFSWSPLILSPVLEDCSEKTAWSPPGPPLDGLSVVLQQAQET
partner: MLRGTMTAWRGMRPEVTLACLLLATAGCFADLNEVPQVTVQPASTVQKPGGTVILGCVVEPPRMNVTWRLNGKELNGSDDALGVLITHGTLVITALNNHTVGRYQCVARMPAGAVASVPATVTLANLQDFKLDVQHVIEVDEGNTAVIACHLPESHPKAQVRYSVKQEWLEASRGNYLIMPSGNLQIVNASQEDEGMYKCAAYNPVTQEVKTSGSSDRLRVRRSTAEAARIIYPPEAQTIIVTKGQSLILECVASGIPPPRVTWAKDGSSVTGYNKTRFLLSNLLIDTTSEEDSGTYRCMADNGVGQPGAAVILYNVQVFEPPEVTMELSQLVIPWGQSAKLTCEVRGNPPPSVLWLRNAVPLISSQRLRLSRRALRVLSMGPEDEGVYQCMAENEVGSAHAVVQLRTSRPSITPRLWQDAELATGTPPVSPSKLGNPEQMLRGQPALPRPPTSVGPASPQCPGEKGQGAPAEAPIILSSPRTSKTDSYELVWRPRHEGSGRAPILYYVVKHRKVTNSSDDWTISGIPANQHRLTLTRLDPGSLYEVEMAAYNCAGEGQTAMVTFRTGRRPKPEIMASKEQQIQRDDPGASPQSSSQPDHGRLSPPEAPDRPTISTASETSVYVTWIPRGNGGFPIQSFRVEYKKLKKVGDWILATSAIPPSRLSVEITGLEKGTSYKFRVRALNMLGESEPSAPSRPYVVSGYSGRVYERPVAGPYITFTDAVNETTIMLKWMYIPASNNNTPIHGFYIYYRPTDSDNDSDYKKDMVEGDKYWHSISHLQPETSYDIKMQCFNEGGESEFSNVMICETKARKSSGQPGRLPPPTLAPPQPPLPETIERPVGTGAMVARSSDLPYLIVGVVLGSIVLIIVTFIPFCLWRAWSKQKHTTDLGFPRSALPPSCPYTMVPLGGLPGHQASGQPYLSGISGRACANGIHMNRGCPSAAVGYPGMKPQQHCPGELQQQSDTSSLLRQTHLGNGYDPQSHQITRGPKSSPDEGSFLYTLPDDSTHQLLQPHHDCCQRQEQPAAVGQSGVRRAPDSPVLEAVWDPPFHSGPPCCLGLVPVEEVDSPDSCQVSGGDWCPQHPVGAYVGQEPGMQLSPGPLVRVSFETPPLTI
B2: Cell adhesion molecule-related/down-regulated by oncogenes (Rattus norvegicus (Rat)), O35158 (parent)
chain: B1 chain
partner: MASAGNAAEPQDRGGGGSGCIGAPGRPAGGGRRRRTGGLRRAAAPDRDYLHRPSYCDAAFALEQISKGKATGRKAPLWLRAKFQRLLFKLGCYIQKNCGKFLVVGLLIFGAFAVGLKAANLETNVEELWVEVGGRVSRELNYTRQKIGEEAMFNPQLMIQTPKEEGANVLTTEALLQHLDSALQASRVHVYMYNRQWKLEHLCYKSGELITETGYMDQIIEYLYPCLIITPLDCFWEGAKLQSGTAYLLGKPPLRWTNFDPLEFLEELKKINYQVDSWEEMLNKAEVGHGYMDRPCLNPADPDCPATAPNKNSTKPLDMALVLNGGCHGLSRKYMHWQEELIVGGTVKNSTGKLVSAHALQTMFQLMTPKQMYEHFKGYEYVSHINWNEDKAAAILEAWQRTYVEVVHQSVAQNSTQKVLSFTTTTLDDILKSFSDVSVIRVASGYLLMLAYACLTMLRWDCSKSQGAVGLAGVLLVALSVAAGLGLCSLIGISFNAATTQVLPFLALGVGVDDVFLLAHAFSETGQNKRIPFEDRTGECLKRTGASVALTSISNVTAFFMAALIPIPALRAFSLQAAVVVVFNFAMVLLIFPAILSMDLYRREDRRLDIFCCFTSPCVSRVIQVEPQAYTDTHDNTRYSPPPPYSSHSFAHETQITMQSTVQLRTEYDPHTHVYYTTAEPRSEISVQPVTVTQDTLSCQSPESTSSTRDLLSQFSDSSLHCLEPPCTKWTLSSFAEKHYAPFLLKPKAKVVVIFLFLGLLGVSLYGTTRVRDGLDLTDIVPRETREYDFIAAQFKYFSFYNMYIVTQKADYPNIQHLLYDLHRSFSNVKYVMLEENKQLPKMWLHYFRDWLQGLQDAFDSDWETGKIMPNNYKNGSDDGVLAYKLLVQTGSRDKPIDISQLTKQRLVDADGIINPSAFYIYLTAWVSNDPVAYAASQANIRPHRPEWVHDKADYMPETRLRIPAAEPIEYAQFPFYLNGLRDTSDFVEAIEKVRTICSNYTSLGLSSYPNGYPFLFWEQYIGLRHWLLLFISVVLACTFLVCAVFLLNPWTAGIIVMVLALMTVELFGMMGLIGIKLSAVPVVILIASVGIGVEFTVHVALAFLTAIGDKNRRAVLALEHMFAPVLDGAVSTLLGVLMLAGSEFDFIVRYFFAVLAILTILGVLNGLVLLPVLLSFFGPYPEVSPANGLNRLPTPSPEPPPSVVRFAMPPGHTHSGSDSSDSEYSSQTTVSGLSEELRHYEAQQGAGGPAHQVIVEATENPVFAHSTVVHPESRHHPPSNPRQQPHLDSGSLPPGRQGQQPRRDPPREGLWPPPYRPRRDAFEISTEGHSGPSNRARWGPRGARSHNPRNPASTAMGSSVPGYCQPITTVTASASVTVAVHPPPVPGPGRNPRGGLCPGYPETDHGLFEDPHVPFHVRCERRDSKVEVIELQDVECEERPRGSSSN
B3: Cell adhesion molecule-related/down-regulated by oncogenes (Rattus norvegicus (Rat)), O35158 (parent)
chain: B1 chain
partner: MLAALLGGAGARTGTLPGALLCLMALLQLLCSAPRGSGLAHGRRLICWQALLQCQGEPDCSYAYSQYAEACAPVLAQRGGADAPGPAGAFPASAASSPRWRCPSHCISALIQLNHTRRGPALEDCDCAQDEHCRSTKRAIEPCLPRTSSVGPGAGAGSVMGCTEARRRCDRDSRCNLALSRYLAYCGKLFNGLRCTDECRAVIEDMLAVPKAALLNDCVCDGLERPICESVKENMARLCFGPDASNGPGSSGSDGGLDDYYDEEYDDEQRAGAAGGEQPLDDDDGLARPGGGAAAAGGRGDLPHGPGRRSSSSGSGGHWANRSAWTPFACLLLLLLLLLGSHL

Variants of: B1
Details: with boc_human BOC

| Variant | effect of a mutation on the interaction |
| --- | --- |
| S937R | with no effect |
| T681S | with no effect |

Now from value to variant:

| effect of a mutation on the interaction | Variant |
| --- | --- |
| with no effect | V777E |
| with no effect | I787A |
| with no effect | V688M |
| decreasing interaction strength | P686A |

Variants of: B2
Details: with ptc1_human PTCH1, Q13635

| Variant | effect of a mutation on the interaction |
| --- | --- |
| S937R | decreasing interaction strength |
| P686A | decreasing interaction strength |
| T681S | with no effect |
| V688M | decreasing interaction strength |

The next lines start with the values.

| effect of a mutation on the interaction | Variant |
| --- | --- |
| decreasing interaction strength | V777E |
| decreasing interaction strength | I787A |

Variants of: B3
Details: with gas1_mouse Gas1, Q01721

| Variant | effect of a mutation on the interaction |
| --- | --- |
| S937R | decreasing interaction strength |
| T681S | with no effect |
| P686A | decreasing interaction strength |

The remaining lines, values ahead:

| effect of a mutation on the interaction | Variant |
| --- | --- |
| with no effect | V688M |
| decreasing interaction strength | I787A |
| with no effect | V777E |
